Measured values published in article PMC8452523 (Cell Reports, 2021).

Target: trimeric Spike, full B.1.351 variant (SARS-CoV-2, lineage B.1.351 (Beta), strain)
Test: Luminex bead-based binding assay

B1: REGN10933 (antibody, V domains shown)
VH: QVQLVESGGGLVKPGGSLRLSCAASGFTFSDYYMSWIRQAPGKGLEWVSYITYSGSTIYYADSVKGRFTISRDNAKSSLYLQMNSLRAEDTAVYYCARDRGTTMVPFDYWGQGTLVTVSS
VL: DIQMTQSPSSLSASVGDRVTITCQASQDITNYLNWYQQKPGKAPKLLIYAASNLETGVPSRFSGSGSGTDFTFTISGLQPEDIATYYCQQYDNLPLTFGGGTKVEIK
  fold reduced binding affinity: 15 fold
